In publication PMC5735978:

Tests used:
LRRK2 = LRRK2 (UniProt Q5S007); experiment: overlay of His-14-3-3γ on blotted Flag-LRRK2; details: reference: 14-3-3γ wild type; sites S59
14-3-3γ = 14-3-3γ (UniProt P61981); experiment: overlay of His-14-3-3γ on blotted Flag-PAK6; details: reference: PAK6 wild type; sites S113
[1] = biological target: 6xHis-14-3-3γ wild-type (human) (UniProt P61981); experiment: native gel or EMSA; blue native gel (4-16%) of His-14-3-3γ after incubation with Flag-PAK6 S531N (4:1 molar ratio) under kinase assay conditions with or without 1 mM ATP; Coomassie staining

14-3-3γ (from UniProt P61981) 14-3-3γ S59D
other: percent reduction versus wild type (LRRK2): 80%

PAK6 (from UniProt Q9NQU5) PAK6 S113A
binding against the reference (14-3-3γ): weaker

6xHis-14-3-3γ wild-type (from UniProt P61981 1-247) (natural protein)
stoichiometry N [1]: 2
